Assay results taken from article PMC6441893.

Biological target: biotinylated histone H3 peptide acetylated at K14 (residues 1-21)
Assay: BLI; biotinylated H3 or H3K14ac peptide (25 nM) immobilised on streptavidin sensors; BD proteins at 1 or 2 uM; 25 °C; 20 mM Tris pH 7.5, 300 mM NaCl, 1 mM TCEP, 1 uM ZnCl2, 10% glycerol, 0.5 mg/mL BSA; apparent Kd from a double exponential fit

| Substance | binding ratio, acetylated versus nonacetylated H3K14 peptide (H3:H3K14ac) |
| --- | --- |
| BD2 protein of PBRM1, GST removed (domain or fragment) | 1.7 |
| BD4 protein of PBRM1, GST removed (domain or fragment) | 1.5 |
| BD234 protein of PBRM1, GST removed (domain or fragment) | 6.8 |
| BD245 protein of PBRM1, GST removed (domain or fragment) | 12.3 |
